Reference: the supplement of paper PMC10724198
± gives the standard deviation of the averaged measurements.

What was measured:
Saccharomyces cerevisiae [1] = experiment: protein stability index of tFT-peptide fusion (C-terminal peptide) (PSI (0-1 scale)); higher = more stable (slower turnover)
Procedure: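 MPS profiling in S. cerevisiae of the tFT-X12 degron library: putative degron peptides plus stable controls, 12 aa, fused to the C-terminus of a sfGFP-mCherry timer. Cells are FACS-sorted into 8 mCherry/sfGFP bins and deep-sequenced. PSI runs from 0 (unstable) to 1 (stable). Backgrounds are wild type, das1Δ and doa10Δ at 30 °C, and wild type, das1Δ, cdc34-1 and cdc53-1 at 37 °C; 2-3 technical replicates each.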

Saccharomyces cerevisiae [2] = experiment: as above; conditions: genetic background: wild type; temperature: 30 C
[3] = genetic background: cdc34-1, temperature: 37 C
[4] = genetic background: cdc53-1, temperature: 37 C
[5] = genetic background: das1 deletion, temperature: 30 C
[6] = genetic background: das1 deletion, temperature: 37 C
[7] = genetic background: doa10 deletion, temperature: 30 C
[8] = genetic background: wild type, temperature: 30 C
[9] = genetic background: wild type, temperature: 37 C
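Also: PSI is a weighted mean of sequencing reads over stability bins, variants kept only with over 10 reads, mCherry proximal and sfGFP distal, peptide attached via GGGS linker.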

| Sequence | protein stability index (Saccharomyces cerevisiae [1]; [3]) | protein stability index (Saccharomyces cerevisiae [1]; [4]) | protein stability index (Saccharomyces cerevisiae [1]; [5]) | protein stability index (Saccharomyces cerevisiae [1]; [6]) | protein stability index (Saccharomyces cerevisiae [1]; [7]) | protein stability index (Saccharomyces cerevisiae [1]; [8]) | protein stability index (Saccharomyces cerevisiae [1]; [9]) | protein stability index (Saccharomyces cerevisiae [2]) |
| --- | --- | --- | --- | --- | --- | --- | --- | --- |
| AEIVCLTDGLLF | 0.715 ± 0.012 | 0.758 ± 0.038 | 0.623 ± 0.013 | 0.7252 ± 0.0028 | 0.641 ± 0.028 | 0.665 ± 0.024 | 0.707 ± 0.0076 | 0.5 ± 0.2 |
| AFFLLVSLLVSP | 0.0637 ± 0.025 | 0.0989 ± 0.021 | 0.122 ± 0.046 | 0.219 ± 0.0041 | 0.0944 ± 0.0098 | 0.132 ± 0.041 | 0.186 ± 0.0021 | 0.204 ± 0.097 |
| APPLPFPTPPPS | 0.68 ± 0.031 | 0.747 ± 0.034 | 0.644 ± 0.042 | 0.693 ± 0.038 | 0.647 ± 0.029 | 0.633 ± 0.029 | 0.678 ± 0.0098 | – |
| AVTMSYQCGIFI | 0.646 ± 0.029 | 0.672 ± 0.031 | 0.564 ± 0.0081 | 0.71 ± 0.028 | 0.5372 ± 0.0042 | 0.566 ± 0.019 | 0.68 ± 0.022 | – |
| FGGVFCVMARLV | 0.602 ± 0.14 | 0.685 ± 0.016 | 0.629 ± 0.034 | 0.689 ± 0.01 | 0.318 ± 0.0054 | 0.356 ± 0.025 | 0.506 ± 0.0059 | – |
| GGGGGGRWGRLC | 0.634 ± 0.047 | 0.752 ± 0.031 | 0.66 ± 0.019 | 0.7572 ± 0.0018 | 0.189 ± 0.0036 | 0.232 ± 0.018 | 0.478 ± 0.0099 | – |
| IRRWGRCRVRCM | 0.584 ± 0.029 | 0.655 ± 0.034 | 0.428 ± 0.037 | 0.616 ± 0.018 | 0.255 ± 0.0087 | 0.288 ± 0.028 | 0.52896 ± 2.4e-05 | – |
| LIVFSGFLFLLS | 0.442 ± 0.01 | 0.53 ± 0.049 | 0.373 ± 0.031 | 0.5639 ± 0.0056 | 0.3758 ± 0.0014 | 0.364 ± 0.023 | 0.5096 ± 0.0027 | – |
| PVPERTSATEPP | 0.61 ± 0.052 | 0.667 ± 0.029 | 0.617 ± 0.038 | 0.6671 ± 0.006 | 0.634 ± 0.0083 | 0.627 ± 0.019 | 0.655 ± 0.0013 | – |
